B1: 单克隆抗体8H9 (antibody, V domains shown)
VH: QIQLVQSGPELKKPGETVKISCKASGYTFTTYGMSWVKQTPGKGLKWMGWINTYSGVPTYADDFKGRFAFSLETSASTASLQINNLKNEDTATYFCARYDPTAPDYAMDYWGQGTSVTVSS
VL: NIVMTQSPKSMSMSVGERVTLSCKASENVGTYVSWYQQKPEQSPKLLIYGASNRYTGVPDRFTGSGSATDFTLTISSVQAEDLADYHCGQSYIYPLTFGAGTNLELK
B2: 单克隆抗体9D4 (antibody, V domains shown)
VH: QVHLQQSGPELVKPGASVKISCKSSGYALTDYYINWVKQRPGQGLEWIGWIFPGNDYTYFNEKFKDKATLTLDKSSRTAYMLLSSLTTEDSAVYFCARYGDGNYVYFDYWGQGTSLTVSS
VL: ETVLIQSPALMAASPGEKVTITCSVSSSISSSNLHWYQQKSGNSPKPWIYGTSNLASGVPVRFSGSGSGTSYSLTISSMEAEDAATYYCQQWSSYPLTFGAGTKLELK

Tests used:
[1] = molecular target: SARS-CoV-2突变株B.1.617.2株假病毒 (刺突蛋白) (SARS-CoV-2); test: cell-based or functional assay
[2] = molecular target: SARS-CoV-2突变株B.1.1.529株假病毒 (刺突蛋白) (SARS-CoV-2); test: cell-based or functional assay

Binder	假病毒中和活性IC50 [1] [ng/mL]	假病毒中和活性IC50 [2] [ng/mL]
B1	56.6	92.9
B2	155	188
